Source: patent US20090004198A1 (published 2009)

Target: T1, GST-HCMV-AD1 fusion protein (human cytomegalovirus (HCMV), UniProt P06473 552-635)
T1 construct: also called GST fused HCMV-AD1; not shown: GST (glutathione S-transferase) fusion partner
Assay: BIAcore (SPR); antigen fixed to the sensor chip, antibody as analyte; GST protein as control

T1 sequence (P06473 552-635 limits assumed): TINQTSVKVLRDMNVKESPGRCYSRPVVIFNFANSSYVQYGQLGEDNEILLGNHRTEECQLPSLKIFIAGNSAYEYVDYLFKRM

B1: anti-HCMV antibody (G3D No. 9) (antibody, human IgG1, kappa, V domains shown)
VH: QVQLVESGGGMVQPGKSLRLSCAASGFTFSSYGMHWVRQAPGRGLEWVAIIWYDGDNTWYADSVKGRITISRDNSKNMLYLQMDSLRVEDTALYYCVRGGLGYFNGWDVDHWGQGTLVTVSS
VL: DVVMTQSPLSLPVTLGQPASISCRSSESLVYSDGNTYLNWFQQRPGQSPRRLISKVSNRDSGVPDRFSGSGSGTDFTLKISRVEAEDVGVYYCMQGSHWPPYTFGQGTKLEIKR
notes: also called G3D No. 9 antibody; anti-HCMV monoclonal antibody
Kd: 0.0116 nM
